Patent publication US20260098059A1 (ENDOMET BIOSCIENCES, published 2026)
Where “and” joins values, the source holds several entries; their conditions need not be identical. Identical values can stand only once. Bridges are numbered along the chain shown (N, C = ends). Where no end group is shown, it is not given here. [ ]: non-standard residue; d: D form. The star is where a group is joined. NMeW = CN[C@@H](Cc1c[nH]c2ccccc12)C(=O)O; Palmitoyl = CCCCCCCCCCCCCCCC(=O)*; Chg = N[C@H](C(=O)O)C1CCCCC1; αMeV = CC(C)[C@](C)(N)C(=O)O; αMeS = C[C@](N)(CO)C(=O)O; NMeA = CN[C@@H](C)C(=O)O; GABA = NCCCC(=O)O; βAla = NCCC(=O)O

B1: SEQ ID NO: 486 (peptide)
peptide: PQKILDEHVQRVMK-NH2
modifications: bridge 3-7; not fully specified (N-terminus); printed as H23C11C(O)-PQK*ILDE*HVQRVMK-NH2; also: K3* and E7* marked (linkage not given here)
B2: SEQ ID NO: 456 (peptide)
peptide: WXQKILNDHGQRVW
HELM: PEPTIDE1{[CCCCCCCCCCCC(=O)[*:2]].W.[Aib].Q.K.I.L.N.D.H.[O=C([C@@H](N[*:1])C1CCCCC1)[*:2]].Q.R.V.W.[am]}$PEPTIDE1,PEPTIDE1,5:R3-9:R3$$$V2.0
SMILES: CCCCCCCCCCCC(=O)N[C@@H](Cc1c[nH]c2ccccc12)C(=O)NC(C)(C)C(=O)N[C@@H](CCC(N)=O)C(=O)N[C@H]1CCCCNC(=O)C[C@@H](C(=O)N[C@@H](Cc2c[nH]cn2)C(=O)N[C@H](C(=O)N[C@@H](CCC(N)=O)C(=O)N[C@@H](CCCNC(=N)N)C(=O)N[C@H](C(=O)N[C@@H](Cc2c[nH]c3ccccc23)C(N)=O)C(C)C)C2CCCCC2)NC(=O)[C@H](CC(N)=O)NC(=O)[C@H](CC(C)C)NC(=O)[C@H]([C@@H](C)CC)NC1=O
B3: SEQ ID NO: 453 (peptide)
peptide: WAQKILNDHGQAV
HELM: PEPTIDE1{[CCCCCCCCCCCC(=O)[*:2]].W.[meA].Q.K.I.L.N.D.H.[O=C([C@@H](N[*:1])C1CCCCC1)[*:2]].Q.A.V.[am]}$PEPTIDE1,PEPTIDE1,5:R3-9:R3$$$V2.0
SMILES: CCCCCCCCCCCC(=O)N[C@@H](Cc1c[nH]c2ccccc12)C(=O)N(C)[C@@H](C)C(=O)N[C@@H](CCC(N)=O)C(=O)N[C@H]1CCCCNC(=O)C[C@@H](C(=O)N[C@@H](Cc2c[nH]cn2)C(=O)N[C@H](C(=O)N[C@@H](CCC(N)=O)C(=O)N[C@@H](C)C(=O)N[C@H](C(N)=O)C(C)C)C2CCCCC2)NC(=O)[C@H](CC(N)=O)NC(=O)[C@H](CC(C)C)NC(=O)[C@H]([C@@H](C)CC)NC1=O
B4: SEQ ID NO: 412 (peptide)
peptide: AEEDPQTILDDHLSRVLK
HELM: PEPTIDE1{[ac].[bAla].E.E.D.P.Q.T.I.L.D.D.H.L.S.R.V.L.K.[am]}$$$$V2.0
SMILES: CC[C@H](C)[C@H](NC(=O)[C@@H](NC(=O)[C@H](CCC(N)=O)NC(=O)[C@@H]1CCCN1C(=O)[C@H](CC(=O)O)NC(=O)[C@H](CCC(=O)O)NC(=O)[C@H](CCC(=O)O)NC(=O)CCNC(C)=O)[C@@H](C)O)C(=O)N[C@@H](CC(C)C)C(=O)N[C@@H](CC(=O)O)C(=O)N[C@@H](CC(=O)O)C(=O)N[C@@H](Cc1c[nH]cn1)C(=O)N[C@@H](CC(C)C)C(=O)N[C@@H](CO)C(=O)N[C@@H](CCCNC(=N)N)C(=O)N[C@H](C(=O)N[C@@H](CC(C)C)C(=O)N[C@@H](CCCCN)C(N)=O)C(C)C
B5: SEQ ID NO: 454 (peptide)
peptide: WAQKILNDHGQAV
HELM: PEPTIDE1{[CCCCCCCCCCCCCCCC(=O)[*:2]].W.[meA].Q.K.I.L.N.D.H.[O=C([C@@H](N[*:1])C1CCCCC1)[*:2]].Q.A.V.[am]}$PEPTIDE1,PEPTIDE1,5:R3-9:R3$$$V2.0
SMILES: CCCCCCCCCCCCCCCC(=O)N[C@@H](Cc1c[nH]c2ccccc12)C(=O)N(C)[C@@H](C)C(=O)N[C@@H](CCC(N)=O)C(=O)N[C@H]1CCCCNC(=O)C[C@@H](C(=O)N[C@@H](Cc2c[nH]cn2)C(=O)N[C@H](C(=O)N[C@@H](CCC(N)=O)C(=O)N[C@@H](C)C(=O)N[C@H](C(N)=O)C(C)C)C2CCCCC2)NC(=O)[C@H](CC(N)=O)NC(=O)[C@H](CC(C)C)NC(=O)[C@H]([C@@H](C)CC)NC1=O
B6: SEQ ID NO: 477 (peptide)
peptide: W[NMeA]QKILDEH[Chg]EAVWK
modifications: lactam 11-15, 4-8 (inferred); not fully specified (N-terminus); printed as H23C11C(O)-NH-W-NMeA-QK*ILDE*H-Chg-E*AVWK*
B7: SEQ ID NO: 451 (peptide)
peptide: WAESILKEHVQRVWG
HELM: PEPTIDE1{[CCCCCCCCCCCC(=O)[*:2]].W.[meA].E.S.I.L.K.E.H.V.Q.R.V.W.G.[am]}$PEPTIDE1,PEPTIDE1,4:R3-8:R3$$$V2.0
SMILES: CCCCCCCCCCCC(=O)N[C@@H](Cc1c[nH]c2ccccc12)C(=O)N(C)[C@@H](C)C(=O)N[C@H]1CCC(=O)NCCCC[C@@H](C(=O)N[C@@H](CCC(=O)O)C(=O)N[C@@H](Cc2c[nH]cn2)C(=O)N[C@H](C(=O)N[C@@H](CCC(N)=O)C(=O)N[C@@H](CCCNC(=N)N)C(=O)N[C@H](C(=O)N[C@@H](Cc2c[nH]c3ccccc23)C(=O)NCC(N)=O)C(C)C)C(C)C)NC(=O)[C@H](CC(C)C)NC(=O)[C@H]([C@@H](C)CC)NC(=O)[C@H](CO)NC1=O
B8: SEQ ID NO: 399 (peptide)
peptide: Palmitoyl-[βAla]W[NMeW]E[αMeS]ILDEH[αMeV]QRVW-OH
SMILES: CCCCCCCCCCCCCCCC(=O)NCCC(=O)N[C@@H](Cc1c[nH]c2ccccc12)C(=O)N(C)[C@@H](Cc1c[nH]c2ccccc12)C(=O)N[C@@H](CCC(=O)O)C(=O)N[C@@](C)(CO)C(=O)N[C@H](C(=O)N[C@@H](CC(C)C)C(=O)N[C@@H](CC(=O)O)C(=O)N[C@@H](CCC(=O)O)C(=O)N[C@@H](Cc1c[nH]cn1)C(=O)N[C@](C)(C(=O)N[C@@H](CCC(N)=O)C(=O)N[C@@H](CCCNC(=N)N)C(=O)N[C@H](C(=O)N[C@@H](Cc1c[nH]c2ccccc12)C(=O)O)C(C)C)C(C)C)[C@@H](C)CC
B9: SEQ ID NO: 50 (peptide)
peptide: MSRMAFLISFWG
HELM: PEPTIDE1{M.S.R.M.[meA].F.L.I.S.F.W.G}$$$$V2.0
SMILES: CC[C@H](C)[C@H](NC(=O)[C@H](CC(C)C)NC(=O)[C@H](Cc1ccccc1)NC(=O)[C@H](C)N(C)C(=O)[C@H](CCSC)NC(=O)[C@H](CCCNC(=N)N)NC(=O)[C@H](CO)NC(=O)[C@@H](N)CCSC)C(=O)N[C@@H](CO)C(=O)N[C@@H](Cc1ccccc1)C(=O)N[C@@H](Cc1c[nH]c2ccccc12)C(=O)NCC(=O)O

target: T1, β-catenin (UniProt P35222 134-665, limits assumed, biotinylated in the SPR and plate assays); experiment: cell-based or functional assay
T1 sequence (looked up): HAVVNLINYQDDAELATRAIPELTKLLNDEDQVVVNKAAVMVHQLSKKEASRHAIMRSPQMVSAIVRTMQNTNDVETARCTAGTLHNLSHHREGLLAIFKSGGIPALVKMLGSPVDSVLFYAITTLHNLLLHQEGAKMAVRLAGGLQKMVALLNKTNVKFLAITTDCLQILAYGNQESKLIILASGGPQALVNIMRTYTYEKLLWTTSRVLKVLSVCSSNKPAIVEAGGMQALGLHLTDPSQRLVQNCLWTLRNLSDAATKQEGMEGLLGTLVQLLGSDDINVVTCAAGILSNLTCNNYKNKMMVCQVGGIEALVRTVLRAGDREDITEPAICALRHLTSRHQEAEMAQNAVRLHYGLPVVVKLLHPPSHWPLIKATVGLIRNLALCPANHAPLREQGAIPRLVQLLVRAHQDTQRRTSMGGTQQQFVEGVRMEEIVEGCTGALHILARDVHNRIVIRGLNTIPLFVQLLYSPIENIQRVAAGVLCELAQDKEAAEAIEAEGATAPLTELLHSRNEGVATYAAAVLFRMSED

Row | Binder | Wnt Reporter EC50
1 | Ac-PQKILDEHVQRVMK-NH2 (bridge 3-7; also: K3* and E7* marked (linkage not given here)) [SEQ ID NO: 485] | > 30 µM
2 | B1 | > 30 µM
3 | B2 | ≤ 7.5 µM
4 | B3 | ≤ 7.5 µM
5 | B4 | > 30 µM
6 | B5 | ≤ 7.5 µM
7 | Ac-W[NMeA]QKILDEH[Chg]EAVWK (lactam 11-15, 4-8 (inferred)) [SEQ ID NO: 476] | > 7.5 µM and ≤ 15 µM
8 | B6 | ≤ 7.5 µM
9 | B7 | ≤ 7.5 µM
10 | B8 | > 7.5 µM and ≤ 15 µM
11 | Palmitoyl-PQKILDEHVQRVMK-NH2 (bridge 3-7; also: K3* and E7* marked (linkage not given here)) [SEQ ID NO: 487] | ≤ 7.5 µM
12 | H-MSRMWFLISFWG-OH [SEQ ID NO: 41] | ≤ 7.5 µM
13 | H-MSRTWFLISFWG-OH [SEQ ID NO: 48] | > 7.5 µM and ≤ 15 µM
14 | H-MSRVWFLISFWG-OH [SEQ ID NO: 64] | > 7.5 µM and ≤ 15 µM
15 | H-MSRMWFLTSFWG-OH [SEQ ID NO: 62] | > 30 µM
16 | H-MNRMWFLISFWG-OH [SEQ ID NO: 61] | > 7.5 µM and ≤ 15 µM
17 | H-MSRKWFLISFWG-OH [SEQ ID NO: 59] | > 30 µM
18 | H-MSRMWFLISLWG-OH [SEQ ID NO: 68] | > 7.5 µM and ≤ 15 µM
19 | H-MSRMWFPISFWG-OH [SEQ ID NO: 65] | > 30 µM
20 | H-MSRIWFLISFWG-OH [SEQ ID NO: 55] | ≤ 7.5 µM
21 | H-MSRMLFLISFWG-OH [SEQ ID NO: 52] | > 15 µM and ≤ 22.5 µM
22 | H-MSRMWFLISSWG-OH [SEQ ID NO: 54] | > 15 µM and ≤ 22.5 µM
23 | H-MSRMWFLFSFWG-OH [SEQ ID NO: 63] | ≤ 7.5 µM
24 | H-MSRMWFLNSFWG-OH [SEQ ID NO: 70] | > 30 µM
25 | H-MSRMWLLISFWG-OH [SEQ ID NO: 60] | > 7.5 µM and ≤ 15 µM
26 | H-MSRMWFLVSFWG-OH [SEQ ID NO: 56] | > 7.5 µM and ≤ 15 µM
27 | B9 | > 30 µM
28 | H-MGRMWFLISFWG-OH [SEQ ID NO: 67] | ≤ 7.5 µM
29 | {Palmitoyl-GABA}-W[NMeW]E[αMeS]ILDEH[αMeV]QRVW-OH [SEQ ID NO: 400] | > 7.5 µM and ≤ 15 µM
